Targets include HLA-A*11:01; HLA-A*33:01; HLA-A*03:01; HLA-A*31:01; HLA-A*68:01.
Test in all cases: IEDB peptide-MHC binding, purified MHC/competitive/radioactivity; filed as Kd, often an IC50 or EC50 that approximates it; ≥ and ≤ were set here for values at or beyond the usual limits of such assays
Setting [1] is: source organism: SARS coronavirus Tor2.
Setting [2] is: source organism: Vaccinia virus WR.
The mark [3] stands for this setting: source organism: Lymphocytic choriomeningitis virus (strain Armstrong).
Setting [4] is: source organism: Mammarenavirus juninense.
Setting [5] is: source organism: Vaccinia virus Copenhagen.
[6] abbreviates: source organism: Mammarenavirus brazilense.
Where [7] appears, read: source organism: Mammarenavirus lassaense.

The text below walks through data of the Immune Epitope Database (IEDB).

A word on the Kd: it is the constant that tells how readily two partners part at equilibrium.

Take RLCLFDRYFK: the Kd with HLA-A*11:01 (setting [1]) worked out at 56.5 nM; with HLA-A*33:01 (setting [1]), 1950 nM; in the experiment with HLA-A*03:01 (setting [1]), 23.8 nM; with HLA-A*31:01 (setting [1]) it was 46.1 nM; with HLA-A*68:01 (setting [1]), 861 nM.

Consider RLFRSPQVK, for which the Kd worked out at 715 nM with HLA-A*11:01 (setting [2]); 15300 nM in the experiment with HLA-A*33:01 (setting [2]); 87.2 nM with HLA-A*03:01 (setting [2]); 4960 nM with HLA-A*31:01 (setting [2]); 3670 nM with HLA-A*68:01 (setting [2]).

Turning to SIHLTKTDK, the Kd with HLA-A*11:01 (setting [2]) was 9.38 nM; in the experiment with HLA-A*33:01 (setting [2]) it was ≥ 48300 nM; in the experiment with HLA-A*03:01 (setting [2]), 6.74 nM; in the experiment with HLA-A*31:01 (setting [2]) it was 9440 nM; with HLA-A*68:01 (setting [2]), 140 nM.

As for SKFWYLEHAK, the Kd with HLA-A*11:01 (setting [3]) was 5190 nM; with HLA-A*33:01 (setting [3]) it was 879 nM; with HLA-A*03:01 (setting [3]), 18800 nM; with HLA-A*31:01 (setting [3]) it was 1010 nM; in the experiment with HLA-A*68:01 (setting [3]) it was ≥ 30600 nM.

For SKQYIHCFRK, the Kd with HLA-A*11:01 (setting [4]) was 1520 nM; with HLA-A*33:01 (setting [4]), ≥ 26100 nM; in the experiment with HLA-A*03:01 (setting [4]), 4500 nM; with HLA-A*31:01 (setting [4]) it was 898 nM; with HLA-A*68:01 (setting [4]) it was 2540 nM.

With SLLKETIQK, the Kd in the experiment with HLA-A*11:01 (setting [5]) is 16.8 nM; with HLA-A*33:01 (setting [5]) it was 7380 nM; in the experiment with HLA-A*03:01 (setting [5]) it was 39.6 nM; in the experiment with HLA-A*31:01 (setting [5]) it was ≥ 20000 nM; with HLA-A*68:01 (setting [5]), 3480 nM.

SMQNCLLRLK: the Kd was determined as 17.8 nM with HLA-A*11:01 (setting [1]); 725 nM in the experiment with HLA-A*33:01 (setting [1]); 9.94 nM with HLA-A*03:01 (setting [1]); 18.1 nM with HLA-A*31:01 (setting [1]); 1280 nM with HLA-A*68:01 (setting [1]).

With STSAADIKR, the Kd with HLA-A*11:01 (setting [2]) was 13.2 nM; with HLA-A*33:01 (setting [2]), ≥ 22100 nM; with HLA-A*03:01 (setting [2]) it was ≥ 30400 nM; with HLA-A*31:01 (setting [2]) it was 1300 nM; with HLA-A*68:01 (setting [2]) it was 5.19 nM.

Regarding SVSAKQLRTR, the Kd is 90.8 nM with HLA-A*11:01 (setting [2]); 5590 nM with HLA-A*33:01 (setting [2]); 168 nM with HLA-A*03:01 (setting [2]); 700 nM with HLA-A*31:01 (setting [2]); 148 nM with HLA-A*68:01 (setting [2]).

Regarding SVSIILANER, the Kd in the experiment with HLA-A*11:01 (setting [2]) stood at 77.1 nM; with HLA-A*33:01 (setting [2]), 1640 nM; with HLA-A*03:01 (setting [2]) it was 2520 nM; with HLA-A*31:01 (setting [2]), 655 nM; with HLA-A*68:01 (setting [2]), 0.432 nM.

In the case of TALAKCNLDH, the Kd in the experiment with HLA-A*11:01 (setting [6]) was ≥ 69700 nM; in the experiment with HLA-A*33:01 (setting [6]), ≥ 46900 nM; with HLA-A*03:01 (setting [6]), ≥ 70000 nM; with HLA-A*31:01 (setting [6]), 878 nM; in the experiment with HLA-A*68:01 (setting [6]), ≥ 35100 nM.

With TCQGSDDIKK, the Kd in the experiment with HLA-A*11:01 (setting [7]) is 13000 nM; with HLA-A*33:01 (setting [7]) it was ≥ 24200 nM; with HLA-A*03:01 (setting [7]), ≥ 70000 nM; with HLA-A*31:01 (setting [7]), 6330 nM; in the experiment with HLA-A*68:01 (setting [7]) it was 4450 nM.

As for TIISEEYLSK, the Kd was determined as 1.74 nM with HLA-A*11:01 (setting [2]); 8850 nM in the experiment with HLA-A*33:01 (setting [2]); 39.5 nM in the experiment with HLA-A*03:01 (setting [2]); 6710 nM with HLA-A*31:01 (setting [2]); 16.6 nM with HLA-A*68:01 (setting [2]).

With TLNVLAWLY, the Kd with HLA-A*11:01 (setting [1]) came to 25 nM; with HLA-A*33:01 (setting [1]), 7370 nM; with HLA-A*03:01 (setting [1]), 36.5 nM; in the experiment with HLA-A*31:01 (setting [1]) it was 2720 nM; with HLA-A*68:01 (setting [1]) it was 13200 nM.

In the case of TQWSLFFFVY, the Kd with HLA-A*11:01 (setting [1]) was 358 nM; with HLA-A*33:01 (setting [1]), 1370 nM; with HLA-A*03:01 (setting [1]), 2510 nM; with HLA-A*31:01 (setting [1]) it was 1580 nM; with HLA-A*68:01 (setting [1]), 6710 nM.

Take TSLAIKNYY: the Kd was 294 nM with HLA-A*11:01 (setting [2]); ≥ 29300 nM in the experiment with HLA-A*33:01 (setting [2]); 18200 nM with HLA-A*03:01 (setting [2]); 2260 nM with HLA-A*31:01 (setting [2]); 1670 nM in the experiment with HLA-A*68:01 (setting [2]).

As to TSTGNYNYK, the Kd with HLA-A*11:01 (setting [1]) is 21.1 nM; with HLA-A*33:01 (setting [1]) it was 12200 nM; with HLA-A*03:01 (setting [1]), 1460 nM; in the experiment with HLA-A*31:01 (setting [1]) it was 151 nM; in the experiment with HLA-A*68:01 (setting [1]) it was 37.2 nM.

As for TTLLNETAK, the Kd with HLA-A*11:01 (setting [2]) is 13.1 nM; with HLA-A*33:01 (setting [2]), 8060 nM; with HLA-A*03:01 (setting [2]), 201 nM; in the experiment with HLA-A*31:01 (setting [2]), 3560 nM; with HLA-A*68:01 (setting [2]) it was 10.2 nM.

With TTTSTALGK, the Kd is 31.8 nM with HLA-A*11:01 (setting [1]); ≥ 77700 nM with HLA-A*33:01 (setting [1]); 718 nM with HLA-A*03:01 (setting [1]); 1080 nM in the experiment with HLA-A*31:01 (setting [1]); 28 nM in the experiment with HLA-A*68:01 (setting [1]).

As for TTYDFLARK, the Kd stood at 0.395 nM with HLA-A*11:01 (setting [2]); 8530 nM with HLA-A*33:01 (setting [2]); 47.4 nM with HLA-A*03:01 (setting [2]); 81.1 nM with HLA-A*31:01 (setting [2]); 105 nM in the experiment with HLA-A*68:01 (setting [2]).

As for TVKMGAFMY, the Kd in the experiment with HLA-A*11:01 (setting [2]) was 25.3 nM; in the experiment with HLA-A*33:01 (setting [2]), 8710 nM; with HLA-A*03:01 (setting [2]), 523 nM; in the experiment with HLA-A*31:01 (setting [2]) it was 3040 nM; with HLA-A*68:01 (setting [2]), 48.9 nM.

With VFKGFSDKVR, the Kd was 2640 nM with HLA-A*11:01 (setting [2]); 925 nM with HLA-A*33:01 (setting [2]); ≥ 70100 nM with HLA-A*03:01 (setting [2]); 201 nM with HLA-A*31:01 (setting [2]); ≥ 26800 nM in the experiment with HLA-A*68:01 (setting [2]).

With VLEIINDKGK, the Kd with HLA-A*11:01 (setting [2]) was 2520 nM; with HLA-A*33:01 (setting [2]), ≥ 70000 nM; in the experiment with HLA-A*03:01 (setting [2]), 10100 nM; with HLA-A*31:01 (setting [2]), ≥ 70000 nM; in the experiment with HLA-A*68:01 (setting [2]) it was ≥ 70200 nM.
